Measured values: patent US20260015399A1 (Boehringer Ingelheim, published 2026)
*1 amine or outer side, *2 acyl side, *3 side chain or, on linkers, in order; H or OH if unused. Side-chain parts run from the residue outwards. The star is where a group is joined. C18 diacid = O=C(O)CCCCCCCCCCCCCCCCC(=O)*; γGlu = O=C(O)[C@H](CCC(=O)[*:2])N[*:1]; Isovaleryl = CC(C)CC(=O)*; Ahx = NCCCCCC(=O)O

T1: human NPY2 receptor (human, UniProt P49146 1-381)
T1 construct: whole, on cells; also called hNPY2-R; hNPY2R
T1 sequence (looked up): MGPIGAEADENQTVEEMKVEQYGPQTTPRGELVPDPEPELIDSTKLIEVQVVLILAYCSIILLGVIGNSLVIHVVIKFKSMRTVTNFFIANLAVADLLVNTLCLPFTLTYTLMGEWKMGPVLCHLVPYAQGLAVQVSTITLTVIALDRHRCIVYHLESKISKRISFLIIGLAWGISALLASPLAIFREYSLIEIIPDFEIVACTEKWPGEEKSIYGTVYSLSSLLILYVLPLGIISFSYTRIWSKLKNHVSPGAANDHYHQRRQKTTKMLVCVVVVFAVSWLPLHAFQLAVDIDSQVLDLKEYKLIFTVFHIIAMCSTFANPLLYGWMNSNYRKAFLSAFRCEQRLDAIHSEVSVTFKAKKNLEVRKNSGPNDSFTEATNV

T2: human NPY5 receptor (human, UniProt Q15761 1-445)
T2 sequence (looked up): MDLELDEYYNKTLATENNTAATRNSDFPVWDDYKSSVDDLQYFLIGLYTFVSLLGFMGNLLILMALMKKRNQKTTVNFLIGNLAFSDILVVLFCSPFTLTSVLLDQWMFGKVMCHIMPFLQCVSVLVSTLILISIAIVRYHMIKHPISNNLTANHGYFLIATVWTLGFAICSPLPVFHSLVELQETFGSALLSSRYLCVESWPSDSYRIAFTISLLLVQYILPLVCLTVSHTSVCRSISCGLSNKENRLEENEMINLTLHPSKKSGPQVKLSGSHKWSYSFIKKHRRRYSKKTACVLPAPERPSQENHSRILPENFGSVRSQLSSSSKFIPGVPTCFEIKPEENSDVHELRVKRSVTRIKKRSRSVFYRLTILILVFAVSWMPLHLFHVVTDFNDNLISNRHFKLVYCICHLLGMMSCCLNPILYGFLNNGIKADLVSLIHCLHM

T3: human NPY1 receptor (human, UniProt P25929 1-384)
T3 sequence (looked up): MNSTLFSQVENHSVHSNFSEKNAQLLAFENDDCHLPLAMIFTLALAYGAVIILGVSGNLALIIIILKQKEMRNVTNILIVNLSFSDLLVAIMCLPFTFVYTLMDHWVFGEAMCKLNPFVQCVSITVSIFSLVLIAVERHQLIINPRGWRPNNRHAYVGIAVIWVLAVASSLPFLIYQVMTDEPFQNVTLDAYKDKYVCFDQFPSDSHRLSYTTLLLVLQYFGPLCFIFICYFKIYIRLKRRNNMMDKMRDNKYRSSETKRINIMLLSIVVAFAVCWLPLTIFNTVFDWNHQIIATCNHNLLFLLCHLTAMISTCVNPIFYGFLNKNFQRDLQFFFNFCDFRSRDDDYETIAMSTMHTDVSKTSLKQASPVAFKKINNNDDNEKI

B1: Compound 53 (peptide)
peptide: Isovaleryl-APEK([Ahx-γGlu-C18 diacid])PEEDAEPEEVQRYYVSLRHYYNWLTRQRY-NH2
SMILES: CC(C)CC(=O)N[C@@H](C)C(=O)N1CCC[C@H]1C(=O)N[C@@H](CCC(=O)O)C(=O)N[C@@H](CCCCNC(=O)CCCCCNC(=O)CC[C@H](NC(=O)CCCCCCCCCCCCCCCCC(=O)O)C(=O)O)C(=O)N1CCC[C@H]1C(=O)N[C@@H](CCC(=O)O)C(=O)N[C@@H](CCC(=O)O)C(=O)N[C@@H](CC(=O)O)C(=O)N[C@@H](C)C(=O)N[C@@H](CCC(=O)O)C(=O)N1CCC[C@H]1C(=O)N[C@@H](CCC(=O)O)C(=O)N[C@@H](CCC(=O)O)C(=O)N[C@H](C(=O)N[C@@H](CCC(N)=O)C(=O)N[C@@H](CCCNC(=N)N)C(=O)N[C@@H](Cc1ccc(O)cc1)C(=O)N[C@@H](Cc1ccc(O)cc1)C(=O)N[C@H](C(=O)N[C@@H](CO)C(=O)N[C@@H](CC(C)C)C(=O)N[C@@H](CCCNC(=N)N)C(=O)N[C@@H](Cc1c[nH]cn1)C(=O)N[C@@H](Cc1ccc(O)cc1)C(=O)N[C@@H](Cc1ccc(O)cc1)C(=O)N[C@@H](CC(N)=O)C(=O)N[C@@H](Cc1c[nH]c2ccccc12)C(=O)N[C@@H](CC(C)C)C(=O)N[C@H](C(=O)N[C@@H](CCCNC(=N)N)C(=O)N[C@@H](CCC(N)=O)C(=O)N[C@@H](CCCNC(=N)N)C(=O)N[C@@H](Cc1ccc(O)cc1)C(N)=O)[C@@H](C)O)C(C)C)C(C)C
B2: Compound 55 (peptide)
peptide: Isovaleryl-APEK([Ahx-γGlu-C18 diacid])PEEDASEEEIQRYYVSLRHYYNWLTRQRY-NH2
SMILES: CC[C@H](C)[C@H](NC(=O)[C@H](CCC(=O)O)NC(=O)[C@H](CCC(=O)O)NC(=O)[C@H](CCC(=O)O)NC(=O)[C@H](CO)NC(=O)[C@H](C)NC(=O)[C@H](CC(=O)O)NC(=O)[C@H](CCC(=O)O)NC(=O)[C@H](CCC(=O)O)NC(=O)[C@@H]1CCCN1C(=O)[C@H](CCCCNC(=O)CCCCCNC(=O)CC[C@H](NC(=O)CCCCCCCCCCCCCCCCC(=O)O)C(=O)O)NC(=O)[C@H](CCC(=O)O)NC(=O)[C@@H]1CCCN1C(=O)[C@H](C)NC(=O)CC(C)C)C(=O)N[C@@H](CCC(N)=O)C(=O)N[C@@H](CCCNC(=N)N)C(=O)N[C@@H](Cc1ccc(O)cc1)C(=O)N[C@@H](Cc1ccc(O)cc1)C(=O)N[C@H](C(=O)N[C@@H](CO)C(=O)N[C@@H](CC(C)C)C(=O)N[C@@H](CCCNC(=N)N)C(=O)N[C@@H](Cc1c[nH]cn1)C(=O)N[C@@H](Cc1ccc(O)cc1)C(=O)N[C@@H](Cc1ccc(O)cc1)C(=O)N[C@@H](CC(N)=O)C(=O)N[C@@H](Cc1c[nH]c2ccccc12)C(=O)N[C@@H](CC(C)C)C(=O)N[C@H](C(=O)N[C@@H](CCCNC(=N)N)C(=O)N[C@@H](CCC(N)=O)C(=O)N[C@@H](CCCNC(=N)N)C(=O)N[C@@H](Cc1ccc(O)cc1)C(N)=O)[C@@H](C)O)C(C)C
B3: Compound 118 (peptide)
peptide: Isovaleryl-APEK([Ahx-γGlu-C18 diacid])PPEDAEPEEIQRYYVSLRHYYNWLTRQRY-NH2
SMILES: CC[C@H](C)[C@H](NC(=O)[C@H](CCC(=O)O)NC(=O)[C@H](CCC(=O)O)NC(=O)[C@@H]1CCCN1C(=O)[C@H](CCC(=O)O)NC(=O)[C@H](C)NC(=O)[C@H](CC(=O)O)NC(=O)[C@H](CCC(=O)O)NC(=O)[C@@H]1CCCN1C(=O)[C@@H]1CCCN1C(=O)[C@H](CCCCNC(=O)CCCCCNC(=O)CC[C@H](NC(=O)CCCCCCCCCCCCCCCCC(=O)O)C(=O)O)NC(=O)[C@H](CCC(=O)O)NC(=O)[C@@H]1CCCN1C(=O)[C@H](C)NC(=O)CC(C)C)C(=O)N[C@@H](CCC(N)=O)C(=O)N[C@@H](CCCNC(=N)N)C(=O)N[C@@H](Cc1ccc(O)cc1)C(=O)N[C@@H](Cc1ccc(O)cc1)C(=O)N[C@H](C(=O)N[C@@H](CO)C(=O)N[C@@H](CC(C)C)C(=O)N[C@@H](CCCNC(=N)N)C(=O)N[C@@H](Cc1c[nH]cn1)C(=O)N[C@@H](Cc1ccc(O)cc1)C(=O)N[C@@H](Cc1ccc(O)cc1)C(=O)N[C@@H](CC(N)=O)C(=O)N[C@@H](Cc1c[nH]c2ccccc12)C(=O)N[C@@H](CC(C)C)C(=O)N[C@H](C(=O)N[C@@H](CCCNC(=N)N)C(=O)N[C@@H](CCC(N)=O)C(=O)N[C@@H](CCCNC(=N)N)C(=O)N[C@@H](Cc1ccc(O)cc1)C(N)=O)[C@@H](C)O)C(C)C
B4: Compound 114 (peptide)
peptide: Isovaleryl-APAK([Ahx-γGlu-C18 diacid])PEEDATPEEIQRYYVSLRHYYNWLTRQRY-NH2
SMILES: CC[C@H](C)[C@H](NC(=O)[C@H](CCC(=O)O)NC(=O)[C@H](CCC(=O)O)NC(=O)[C@@H]1CCCN1C(=O)[C@@H](NC(=O)[C@H](C)NC(=O)[C@H](CC(=O)O)NC(=O)[C@H](CCC(=O)O)NC(=O)[C@H](CCC(=O)O)NC(=O)[C@@H]1CCCN1C(=O)[C@H](CCCCNC(=O)CCCCCNC(=O)CC[C@H](NC(=O)CCCCCCCCCCCCCCCCC(=O)O)C(=O)O)NC(=O)[C@H](C)NC(=O)[C@@H]1CCCN1C(=O)[C@H](C)NC(=O)CC(C)C)[C@@H](C)O)C(=O)N[C@@H](CCC(N)=O)C(=O)N[C@@H](CCCNC(=N)N)C(=O)N[C@@H](Cc1ccc(O)cc1)C(=O)N[C@@H](Cc1ccc(O)cc1)C(=O)N[C@H](C(=O)N[C@@H](CO)C(=O)N[C@@H](CC(C)C)C(=O)N[C@@H](CCCNC(=N)N)C(=O)N[C@@H](Cc1c[nH]cn1)C(=O)N[C@@H](Cc1ccc(O)cc1)C(=O)N[C@@H](Cc1ccc(O)cc1)C(=O)N[C@@H](CC(N)=O)C(=O)N[C@@H](Cc1c[nH]c2ccccc12)C(=O)N[C@@H](CC(C)C)C(=O)N[C@H](C(=O)N[C@@H](CCCNC(=N)N)C(=O)N[C@@H](CCC(N)=O)C(=O)N[C@@H](CCCNC(=N)N)C(=O)N[C@@H](Cc1ccc(O)cc1)C(N)=O)[C@@H](C)O)C(C)C

The binders below were run against T1, human NPY2 receptor (assay: RLB: displacement of 125I-PYY(1-36) from hNPY2R membranes).
Work on B1 yielded a Ki of 3.07 nM. For B2, the Ki was 2.96 nM. With B3 the Ki was 1 nM. B4 gave a Ki of 0.95 nM.

The binders below were run against T1, human NPY2 receptor (assay: cell-based or functional assay).
With B1 the “EC50, HTRF cAMP Gi assay” value was 0.352 nM. With B2 the “EC50, HTRF cAMP Gi assay” value was 0.352 nM. With B3 the “EC50, HTRF cAMP Gi assay” value was 0.161 nM. B4 was tested, and the “EC50, HTRF cAMP Gi assay” value was 0.186 nM.

What follows are binders tested against T2, human NPY5 receptor (assay: cell-based or functional assay).
For B1, the “EC50, HTRF cAMP Gi assay” value was greater than 5 µM. With B2 the “EC50, HTRF cAMP Gi assay” value was greater than 5 µM. For B3, the “EC50, HTRF cAMP Gi assay” value was greater than 5 µM. B4 was tested, and the “EC50, HTRF cAMP Gi assay” value was greater than 5 µM.

The binders below were run against human NPY4 receptor (human, UniProt P50391 1-375) (assay: cell-based or functional assay).
human NPY4 receptor, sequence (P50391 whole entry): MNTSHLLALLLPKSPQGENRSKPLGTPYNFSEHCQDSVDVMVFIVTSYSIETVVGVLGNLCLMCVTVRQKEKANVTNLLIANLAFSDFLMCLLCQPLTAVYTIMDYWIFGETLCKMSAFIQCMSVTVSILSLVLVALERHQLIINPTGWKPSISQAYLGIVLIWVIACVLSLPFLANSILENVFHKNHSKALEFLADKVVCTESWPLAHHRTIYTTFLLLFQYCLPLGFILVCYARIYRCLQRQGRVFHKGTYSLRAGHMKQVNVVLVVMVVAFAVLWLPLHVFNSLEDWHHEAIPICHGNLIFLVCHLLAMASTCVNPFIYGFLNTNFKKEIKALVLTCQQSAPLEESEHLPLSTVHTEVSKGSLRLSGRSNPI
With B1 the “EC50, HTRF cAMP Gi assay” value was greater than 5 µM. With B2 the “EC50, HTRF cAMP Gi assay” value was greater than 5 µM. With B3 the “EC50, HTRF cAMP Gi assay” value was greater than 5 µM. For B4, the “EC50, HTRF cAMP Gi assay” value was greater than 5 µM.

These binders were tested against T3, human NPY1 receptor (assay: cell-based or functional assay).
In the case of B1, the “EC50, HTRF cAMP Gi assay” value is reported as greater than 5 µM. In the case of B2, the “EC50, HTRF cAMP Gi assay” value is reported as greater than 5 µM. B3 was tested, and the “EC50, HTRF cAMP Gi assay” value was greater than 5 µM. In the case of B4, the “EC50, HTRF cAMP Gi assay” value is reported as greater than 5 µM.
